Seven molecules from US20220348651A1 (Novartis, published 2022) can be followed below.

The target in assay [1] is T1, cyno ENTPD2 expressed on NIH/3T3 cells (cynomolgus macaque, UniProt Q9Y5L3 1-495 (human entry)).
T1 chain: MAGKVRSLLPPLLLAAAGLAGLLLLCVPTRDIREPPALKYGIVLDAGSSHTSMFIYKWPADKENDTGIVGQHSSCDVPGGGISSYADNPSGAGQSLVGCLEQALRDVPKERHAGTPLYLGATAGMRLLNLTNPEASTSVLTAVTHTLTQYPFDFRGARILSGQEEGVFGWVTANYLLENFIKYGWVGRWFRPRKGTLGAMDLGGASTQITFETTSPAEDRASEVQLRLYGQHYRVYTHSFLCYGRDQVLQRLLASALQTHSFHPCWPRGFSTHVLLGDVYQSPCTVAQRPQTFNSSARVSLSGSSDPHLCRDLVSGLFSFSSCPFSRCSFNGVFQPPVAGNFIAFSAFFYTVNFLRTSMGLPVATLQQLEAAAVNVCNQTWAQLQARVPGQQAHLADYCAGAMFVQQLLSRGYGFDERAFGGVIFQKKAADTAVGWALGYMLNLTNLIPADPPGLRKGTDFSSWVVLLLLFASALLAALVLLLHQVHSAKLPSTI
As to the kind of experiment: cell-based or functional assay.

Assay [2] has as its target T2, human ENTPD2 expressed on cells (human, UniProt Q9Y5L3 1-495).
T2 sequence: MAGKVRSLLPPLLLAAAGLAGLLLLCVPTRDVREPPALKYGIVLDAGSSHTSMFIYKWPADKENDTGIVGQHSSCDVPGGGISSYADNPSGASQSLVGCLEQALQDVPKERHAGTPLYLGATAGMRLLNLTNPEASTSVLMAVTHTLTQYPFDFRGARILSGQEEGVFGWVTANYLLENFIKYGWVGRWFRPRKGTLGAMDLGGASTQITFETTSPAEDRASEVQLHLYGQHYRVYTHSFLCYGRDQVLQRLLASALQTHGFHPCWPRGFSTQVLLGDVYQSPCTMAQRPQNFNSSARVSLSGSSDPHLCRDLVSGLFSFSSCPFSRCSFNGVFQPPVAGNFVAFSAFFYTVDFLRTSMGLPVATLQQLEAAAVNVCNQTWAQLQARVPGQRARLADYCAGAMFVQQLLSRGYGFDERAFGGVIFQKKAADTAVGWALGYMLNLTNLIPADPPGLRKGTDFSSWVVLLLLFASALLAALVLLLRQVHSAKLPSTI
Description: cell-based or functional assay.

The target of assay [3] is recombinant human ENTPD2 extracellular domain (residues 29-462) with C-terminal Avi-His6 tag (human, UniProt Q9Y5L3 29-462, biotinylated on the AviTag in the epitope binning assay). As to the kind of experiment: cell-based or functional assay.
For assay [4], the target named is T3, recombinant human ENTPD2 (residues 29-462, Y350A mutant) used in crystallographic studies (human, UniProt Q9Y5L3 29-462, N-linked glycosylation observed at Asn129, Asn294, Asn378 and Asn443).
T3 construct: also called hENTPD2 Y350A; human ENTPD2 (Y350A mutant) ectodomain
T3 sequence: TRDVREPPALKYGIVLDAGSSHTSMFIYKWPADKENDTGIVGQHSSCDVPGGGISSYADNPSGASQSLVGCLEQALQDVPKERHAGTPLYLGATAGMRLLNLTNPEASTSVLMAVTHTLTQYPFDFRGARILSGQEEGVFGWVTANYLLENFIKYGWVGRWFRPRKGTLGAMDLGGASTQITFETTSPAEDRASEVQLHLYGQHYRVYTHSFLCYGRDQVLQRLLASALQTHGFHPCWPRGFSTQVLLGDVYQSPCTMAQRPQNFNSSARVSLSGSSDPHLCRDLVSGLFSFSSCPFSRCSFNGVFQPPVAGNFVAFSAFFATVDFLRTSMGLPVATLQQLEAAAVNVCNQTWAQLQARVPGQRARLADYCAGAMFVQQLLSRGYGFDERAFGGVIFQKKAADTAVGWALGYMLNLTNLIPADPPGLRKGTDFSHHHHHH
As to the kind of experiment: X-ray crystal structure of the complex. How it is done: (§1) Structure determination by molecular replacement was performed using the previously determined human ENTPD2 coordinates and Fab coordinates from PDB code 3QRG.

Assay [5] addresses T4, mouse ENTPD2 expressed on cells (mouse, UniProt O55026 1-495).
T4 construct: also called NIH3T3-mouse ENTPD2 engineered cell line; mouse ENTPD2-engineered 4T1 clone 45
T4 sequence: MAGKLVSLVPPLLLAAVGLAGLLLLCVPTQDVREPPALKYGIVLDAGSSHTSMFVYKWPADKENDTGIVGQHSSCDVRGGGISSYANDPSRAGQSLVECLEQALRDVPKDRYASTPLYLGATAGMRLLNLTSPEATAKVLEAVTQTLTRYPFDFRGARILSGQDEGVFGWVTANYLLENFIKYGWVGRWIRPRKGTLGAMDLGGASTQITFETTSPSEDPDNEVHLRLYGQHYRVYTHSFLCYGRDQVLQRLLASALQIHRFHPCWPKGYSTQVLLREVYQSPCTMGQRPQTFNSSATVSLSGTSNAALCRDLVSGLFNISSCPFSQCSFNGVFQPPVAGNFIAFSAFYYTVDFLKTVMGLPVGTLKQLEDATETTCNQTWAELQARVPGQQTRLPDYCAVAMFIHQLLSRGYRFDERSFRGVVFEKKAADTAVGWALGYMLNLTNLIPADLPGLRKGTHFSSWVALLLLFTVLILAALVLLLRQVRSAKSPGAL
As to the kind of experiment: flow cytometry (FACS). Background: A flow cytometer gives signals particle by particle.

In assay [6] the target is T4, mouse ENTPD2 expressed on cells. Description: cell-based or functional assay.
Assay [7] deals with T5, recombinant murine ENTPD2 (residues 29-462) used in crystallography studies (mouse, UniProt O55026 29-462, N-linked glycosylation observed at Asn129 and Asn378).
T5 construct: also called murine ENTPD2 ectodomain; mENTPD2
T5 sequence: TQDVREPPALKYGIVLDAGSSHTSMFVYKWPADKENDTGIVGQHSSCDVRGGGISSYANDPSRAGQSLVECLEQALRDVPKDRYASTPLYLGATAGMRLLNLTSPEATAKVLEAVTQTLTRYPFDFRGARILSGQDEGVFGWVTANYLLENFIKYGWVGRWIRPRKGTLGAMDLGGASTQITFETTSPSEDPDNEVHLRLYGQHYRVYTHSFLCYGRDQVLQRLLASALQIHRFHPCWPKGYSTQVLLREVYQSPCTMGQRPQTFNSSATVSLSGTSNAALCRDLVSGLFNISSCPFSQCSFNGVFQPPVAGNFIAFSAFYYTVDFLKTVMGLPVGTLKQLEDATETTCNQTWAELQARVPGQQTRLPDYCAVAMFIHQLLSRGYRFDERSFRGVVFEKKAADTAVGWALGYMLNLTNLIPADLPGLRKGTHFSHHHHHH
As to the kind of experiment: X-ray crystal structure of the complex. On the procedure:
as §1

B1: ANTI-HUMAN ENTPD2 MAB17 (antibody, human IgG1, kappa, V domains shown)
VH: EVQLQQFGAELVKPGASVKISCKASGYTFTDYNMDWVKQSHGKSLEWIGDINPKYDISTYNQQFKGKATLTVDKSSSTAYMELRSLTSEDTAVYYCARRGFFLYYGINYYYFDVWGAGTTVTVSS
VL: QIVLTQSPAIMSASLGEEITLTCSASSSVSYIHWYQQKSGTSPTLLIYSTSNLASGVPSRFSGSGSGTFYSLTISSVEAEDAADYYCHQWSSYPWTFGGGTKLEIKR
Take B1: in assay [1], the “% inhibition, Cyno ENTPD2 NIH/3T3 Assay” value came out at 91% and the “IC50, Cyno ENTPD2 NIH/3T3 Assay” value is 1 nM. Moreover, in assay [2], the “% inhibition, Human ENTPD2 NIH/3T3 Assay” value worked out at 98%; the “% inhibition, RKO Assay” value was 96%; the “IC50, Human ENTPD2 NIH/3T3 Assay” value is 0.6 nM; the “IC50, RKO Assay” value was 0.5 nM. Also, the “IC50, ENTPD2 Biochemical Assay at 1 uM ATP” value in assay [3] was found to be 0.27 nM.

B2: ANTI-HUMAN ENTPD2 FAB23 (Fab, V domains shown)
VH: EVQLQQFGAELVKPGASVKISCKASGYTFTDYNMDWVKQSHGKSLEWIGDINPKYDISTYNQQFKGKATLTVDKSSSTAYMELRSLTSEDTAVYYCARRGFFLYYGINYYYFDVWGAGTTVTVSS
VL: QIVLTQSPAIMSASLGEEITLTCSASSSVSYIHWYQQKSGTSPTLLIYSTSNLASGVPSRFSGSGSGTFYSLTISSVEAEDAADYYCHQWSSYPWTFGGGTKLEIKR
modifications: N-terminal residue observed and modeled as pyroglutamate in the crystal structure
notes: Fab with the variable regions of mAb17; also called anti-hENTPD2 FAb23; anti-human ENTPD2 MAB17 Fab
Take B2: the buried solvent-accessible surface in assay [4] was ~17500 Å2.

B3: ANTI-mouse ENTPD2 MAB13 (antibody, mouse IgG2a, kappa, V domains shown)
VH: QVQLVQSGAELKQPGQSVKISCKASGYTFTHYGMNWVKQAPGQGLKWMGWINTDTGNPTYADDFKGRFVFSLDTSVSTAYLQISNLKNEDTATYYCVRYGTLYSGYGFFFDSWGQGTLVTVSS
VL: DIMMTQSPSSLSVSAGEKATITCKSSQSLFNSNTNKNYLNWYLQKPGQSPKLLFYYASTRHTGVPDRFIGSGSGTDFTLTITSVQDEDLADYYCQQWYSYPWTFGPGTKLEIKR
notes: mouse ENTPD2 selective antibody; also called Anti-ENTPD2 mAb13
In the case of B3, the EC50 (usually the concentration at which the effect is half-maximal) in assay [5] lay within 3 to 4 nM. For the same molecule, in assay [6], the “ENTPD2 Functional Assay IC50 (mouse ENTPD2 NIH/3T3 cells)” value (“ENTPD2 Functional Assay IC50” below) was determined as 2.8 nM.

B4: ANTI-mouse ENTPD2 FAB24 (Fab, V domains shown)
VH: QVQLVQSGAELKQPGQSVKISCKASGYTFTHYGMNWVKQAPGQGLKWMGWINTDTGNPTYADDFKGRFVFSLDTSVSTAYLQISNLKNEDTATYYCVRYGTLYSGYGFFFDSWGQGTLVTVSS
VL: DIMMTQSPSSLSVSAGEKATITCKSSQSLFNSNTNKNYLNWYLQKPGQSPKLLFYYASTRHTGVPDRFIGSGSGTDFTLTITSVQDEDLADYYCQQWYSYPWTFGPGTKLEIKR
modifications: N-terminal residue observed and modeled as pyroglutamate in the crystal structure
notes: Fab with the variable regions of mAb13; human CH1 and kappa constant regions; also called anti-murine ENTPD2 Fab MAB13
Consider B4, for which the buried solvent-accessible surface in assay [7] was ~16300 Å2.

B5: ANTI-mouse ENTPD2 MAB14 (antibody, mouse IgG2a, kappa, V domains shown)
VH: QVQLVQSGAELKQPGQSVKISCKASGYTFWHYGMNWVKQAPGQGLKWMGWINTDTGNPTYADDFKGRFVFSLDTSVSTAYLQISNLKNEDTATYYCVRYGTLYSGYGFFFDSWGQGTLVTVSS
VL: DIMMTQSPSSLSVSAGEKATITCKSSQSLFNSNTNKNYLNWYLQKPGQSPKLLFYYASTRHTGVPDRFIGSGSGTDFTLTITSVQDEDLADYYCQQWYSYPWTFGPGTKLEIKR
Regarding B5, in assay [6], the “ENTPD2 Functional Assay IC50” value was determined as 4.6 nM.

B6: ANTI-mouse ENTPD2 MAB15 (antibody, mouse IgG2a, kappa, V domains shown)
VH: QVQLVQSGAELKQPGQSVKISCKASGYTFHHYGMNWVKQAPGQGLKWMGWINTDTGNPTYADDFKGRFVFSLDTSVSTAYLQISNLKNEDTATYYCVRYGTLYSGYGFFFDSWGQGTLVTVSS
VL: DIMMTQSPSSLSVSAGEKATITCKSSQSLFNSNTNKNYLNWYLQKPGQSPKLLFYYASTRHTGVPDRFIGSGSGTDFTLTITSVQDEDLADYYCQQWYSYPWTFGPGTKLEIKR
For the molecule B6, the “ENTPD2 Functional Assay IC50” value in assay [6] worked out at 5.9 nM.

B7: ANTI-HUMAN ENTPD2 FAB22 (Fab, V domains shown)
VH: EVKLEQSGPGLVKPSQSLSLTCSVTGYSITSGYYWNWIRQFPGNKLEWMSYISYDGDNNYNPSLKNRISITRDTSKNQFFLKLSSVTTEDTATYYCAGGYYRYGLSYYYVMDYWGQGTSVTVSA
VL: DIKMTQSPASLAVSLGQRATISCKASQSVDYDGNSYMNWYQQKPGQPPKLLIYAASNLESGIPARFSGSGSGTDFTLNIHPVEEEDAATYYCQQSNEDPPTFGGGTKLELKR
notes: Fab with the CDRs of mAb16; human CH1 and kappa constant regions; also called anti-hENTPD2 FAb22
With B7, the buried solvent-accessible surface in assay [4] is ~16700 Å2.
